Results as given in US20100286027A1, “ANTI-BACTERIAL COMPOSITIONS” (priority 2008, published 2010).
≈ marks a conversion by molar mass, not a printed value.

How the values were obtained:
[1] = system: Prevotella intermedia NB88001; experiment: MIC against anaerobic bacteria; assay type: cell-based; conditions: read-out: minimal inhibitory concentration (MIC)
[2] = system: Eubacterium lentum NB94001; experiment: MIC against anaerobic bacteria; assay type: cell-based; conditions: read-out: minimal inhibitory concentration (MIC)
[3] = system: Bacteroides fragilis NB85001; experiment: MIC against anaerobic bacteria; assay type: cell-based; conditions: read-out: minimal inhibitory concentration (MIC)
[4] = system: Peptostreptococcus anaerobius NB97001; experiment: MIC against anaerobic bacteria; assay type: cell-based; conditions: read-out: minimal inhibitory concentration (MIC)
[5] = system: Propionibacterium acnes NB99001; experiment: MIC against anaerobic bacteria; assay type: cell-based; conditions: Cutibacterium acnes, read-out: minimal inhibitory concentration (MIC)
[6] = system: Listeria monocytogenes (7644); experiment: BacTiter-Glo bacterial ATP content viability assay
[7] = system: Enterococcus faecalis (29212); experiment: BacTiter-Glo bacterial ATP content viability assay; conditions: for E. faecals viability by ATP-coupled luminescence assay: FIG. 12, full length protein
[8] = system: Staphylococcus aureus (29213); experiment: BacTiter-Glo bacterial ATP content viability assay; conditions: for S. aureus viability by ATP-coupled luminescence assay: FIG. 12, full length protein
Bacillus Subtilis (6633) = experiment: BacTiter-Glo bacterial ATP content viability assay; conditions: for B. subtilis viability by ATP-coupled luminescence assay: FIG. 12, full length protein
S. maltophilia = experiment: Bacterial growth inhibition (FIG. 15); assay type: cell-based, Stenotrophomonas maltophilia; conditions: FIG. 15 Panel A
[9] = system: Klebsiella pneumoniae (700603); experiment: BacTiter-Glo bacterial ATP content viability assay; conditions: gram −, +/− SD, n = 3, >100 = activity detected but <50% inhibition
[10] = system: H. influenzae NB65027-CDS0021* (TolC efflux pump mutant); experiment: MIC against aerobic gram negative bacteria, efflux pump mutant; assay type: cell-based, Haemophilus influenzae; conditions: aerobic gram negative; H. influenzae NB65027-CDS0021*, TolC efflux pump mutant strain
L. monocytogenes = experiment: Bacterial growth inhibition (FIG. 15); assay type: cell-based, Listeria monocytogenes; conditions: FIG. 15 Panel C
[11] = system: Stenotrophomonas maltophilia (17666); experiment: BacTiter-Glo bacterial ATP content viability assay; conditions: gram −, +/− SD, n = 3, >100 = activity detected but <50% inhibition
[12] = system: lawn of the indicated bacteria; experiment: Agar diffusion assay; conditions: FIG. 11 Panel D; 0.5 mg/ml in sterile PBS per well
[13] = system: Pseudomonas aeruginosa (27853); experiment: BacTiter-Glo bacterial ATP content viability assay; conditions: gram −, +/− SD, n = 3, >100 = activity detected but <50% inhibition
[14] = system: Streptococcus pneumoniae (ATCC 49619); experiment: Gentamycin protection assay in stable 293 cell lines; conditions: 293 cells stably expressing the protein, infected with S. pneumoniae at MOI 10:1, versus control cells
Escherichia coli (8739) = experiment: BacTiter-Glo bacterial ATP content viability assay; conditions: gram −, +/− SD, n = 3, >100 = activity detected but <50% inhibition
[15] = system: E. coli NB27005* (TolC efflux pump mutant); experiment: MIC against aerobic gram negative bacteria, efflux pump mutant; assay type: cell-based, Escherichia coli; conditions: aerobic gram negative; E. coli NB27005*, TolC efflux pump mutant strain
[16] = system: Streptococcus pneumoniae (49619); experiment: BacTiter-Glo bacterial ATP content viability assay; conditions: gram +, +/− SD, n = 3, >100 = activity detected but <50% inhibition
[17] = system: Salmonella choleraesuis (13076); experiment: BacTiter-Glo bacterial ATP content viability assay; conditions: gram −, +/− SD, n = 3, >100 = activity detected but <50% inhibition
Escherichia coli (25922) = experiment: BacTiter-Glo bacterial ATP content viability assay; conditions: gram −, +/− SD, n = 3, >100 = activity detected but <50% inhibition
[18] = FIG. 10, 5×10^5 bacteria/100 μl, increasing concentrations, 6 hours at 37° C., relative to controls

## O=C(O)c1cn(C2CC2)c2cc(N3CCNCC3)c(F)cc2c1=O [Ciprofloxacin, reference compound]
[1]
  MIC: 1 µg/mL (≈ 3.02 µM)
[2]
  MIC: 2 µg/mL (≈ 6.04 µM)
[3]
  MIC: 8 µg/mL (≈ 24.1 µM)
[4]
  MIC: 1 µg/mL (≈ 3.02 µM)
[5]
  MIC: 1 µg/mL (≈ 3.02 µM)

## TLR2: recombinant LRR domain of Toll-like receptor 2; human TLR2-LRR is SEQ ID NO: 6
[6]; [18]
  L. monocytogenes viability by ATP-coupled luminescence assay: inhibit

## G908R: full length Nod2 protein carrying the Crohn's-associated G908R mutation
[7]
  E. faecals viability by ATP-coupled luminescence assay: deficient
[8]
  S. aureus viability by ATP-coupled luminescence assay: deficient
[6]; FIG. 12, full length protein
  L. monocytogenes viability by ATP-coupled luminescence assay: deficient
Bacillus Subtilis (6633)
  B. subtilis viability by ATP-coupled luminescence assay: deficient

B1: Nalp3: recombinant LRR domain of Nalp3; human Nalp3-LRR is SEQ ID NO: 7 (protein, listed as Homo sapiens)
chain: MVQCVLPSSSHAACSHGLVNSHLTSSFCRGLFSVLSTSQSLTELDLSDNSLGDPGMRVLCETLQHPGCNIRRLWLGRCGLSHECCFDISLVLSSNQKLVELDLSDNALGDFGIRLLCVGLKHLLCNLKKLWLVSCCLTSACCQDLASVLSTSHSLTRLYVGENALGDSGVAILCEKAKNPQCNLQKLGLVNSGLTSVCCSALSSVLSTNQNLTHLYLRGNTLGDKGIKLLCEGLLHPDCKLQVLELDNCNLTSHCCWDLSTLLTSSQSLRKLSLGNNDLGDLGVMMFCEVLKQQSCLLQNLGLSEMYFNYETKSALETLQEEKPELTVVFEPSW
[6]; [18]
  L. monocytogenes viability by ATP-coupled luminescence assay: inhibit

B2: NAIP: Neuronal apoptosis inhibitor protein, an LRR protein (protein, UniProt Q13075 1-1403, looked up)
Baculoviral IAP …: MATQQKASDERISQFDHNLLPELSALLGLDAVQLAKELEEEEQKERAKMQKGYNSQMRSEAKRLKTFVTYEPYSSWIPQEMAAAGFYFTGVKSGIQCFCCSLILFGAGLTRLPIEDHKRFHPDCGFLLNKDVGNIAKYDIRVKNLKSRLRGGKMRYQEEEARLASFRNWPFYVQGISPCVLSEAGFVFTGKQDTVQCFSCGGCLGNWEEGDDPWKEHAKWFPKCEFLRSKKSSEEITQYIQSYKGFVDITGEHFVNSWVQRELPMASAYCNDSIFAYEELRLDSFKDWPRESAVGVAALAKAGLFYTGIKDIVQCFSCGGCLEKWQEGDDPLDDHTRCFPNCPFLQNMKSSAEVTPDLQSRGELCELLETTSESNLEDSIAVGPIVPEMAQGEAQWFQEAKNLNEQLRAAYTSASFRHMSLLDISSDLATDHLLGCDLSIASKHISKPVQEPLVLPEVFGNLNSVMCVEGEAGSGKTVLLKKIAFLWASGCCPLLNRFQLVFYLSLSSTRPDEGLASIICDQLLEKEGSVTEMCVRNIIQQLKNQVLFLLDDYKEICSIPQVIGKLIQKNHLSRTCLLIAVRTNRARDIRRYLETILEIKAFPFYNTVCILRKLFSHNMTRLRKFMVYFGKNQSLQKIQKTPLFVAAICAHWFQYPFDPSFDDVAVFKSYMERLSLRNKATAEILKATVSSCGELALKGFFSCCFEFNDDDLAEAGVDEDEDLTMCLMSKFTAQRLRPFYRFLSPAFQEFLAGMRLIELLDSDRQEHQDLGLYHLKQINSPMMTVSAYNNFLNYVSSLPSTKAGPKIVSHLLHLVDNKESLENISENDDYLKHQPEISLQMQLLRGLWQICPQAYFSMVSEHLLVLALKTAYQSNTVAACSPFVLQFLQGRTLTLGALNLQYFFDHPESLSLLRSIHFPIRGNKTSPRAHFSVLETCFDKSQVPTIDQDYASAFEPMNEWERNLAEKEDNVKSYMDMQRRASPDLSTGYWKLSPKQYKIPCLEVDVNDIDVVGQDMLEILMTVFSASQRIELHLNHSRGFIESIRPALELSKASVTKCSISKLELSAAEQELLLTLPSLESLEVSGTIQSQDQIFPNLDKFLCLKELSVDLEGNINVFSVIPEEFPNFHHMEKLLIQISAEYDPSKLVKLIQNSPNLHVFHLKCNFFSDFGSLMTMLVSCKKLTEIKFSDSFFQAVPFVASLPNFISLKILNLEGQQFPDEETSEKFAYILGSLSNLEELILPTGDGIYRVAKLIIQQCQQLHCLRVLSFFKTLNDDSVVEIAKVAISGGFQKLENLKLSINHKITEEGYRNFFQALDNMPNLQELDISRHFTECIKAQATTVKSLSQCVLRLPRLIRLNMLSWLLDADDIALLNVMKERHPQSKYLTILQKWILPFSPIIQK
S. maltophilia
  growth of S. maltophilia: inhibited the growth

B3: Nod2 3020insC: recombinant LRR domain of the Crohn's-associated 3020insC mutant of Nod2 (deoxycytosine inserted at nucleotide position 3020) (protein)
chain: PAAPGEAKSVHAMPGFIWLIRSLYEMQEERLARKAARGLNVGHLKLTFCSVGPTECAALAFVLQHLRRPVALQLDYNSVGDIGVEQLLPCLGVCKALYLRDNNISDRGICKLIECALHCEQLQKLALFNNKLTDGCAHSMAKLLACRQNFLALRLGNNYITAAGAQVLAEGLRGNTSLQFLGFWGNRVGDEGAQALAEALGDHQSLRWLSLVGNNIGSVGAQALALMLAKNVMLEELCLEENHLQDEGVCSLAEGLKKNSSLKILKLSNNCITYLGAEALLQAP
[9]
  antibacterial activity by bacterial ATP content (IC50), [LRR domain]: None detected
[10]
  minimal inhibitory concentration (MIC): 64 microgram/ml
[7]; Enterococcus faecalis (29212), gram +, +/− SD, n = 3, >100 = activity detected but <50% inhibition
  antibacterial activity by bacterial ATP content (IC50), [LRR domain]: None detected
[7]
  E. faecals viability by ATP-coupled luminescence assay: deficient
L. monocytogenes
  L. monocytogenes growth: inhibited
[11]
  antibacterial activity by bacterial ATP content (IC50), [LRR domain]: None detected
[12]
  anti-bacterial activity by agar diffusion assay: not
[8]
  S. aureus viability by ATP-coupled luminescence assay: deficient
[8]; Staphylococcus aureus (29213), gram +, +/− SD, n = 3, >100 = activity detected but <50% inhibition
  antibacterial activity by bacterial ATP content (IC50), [LRR domain]: None detected
[13]
  antibacterial activity by bacterial ATP content (IC50), [LRR domain]: None detected
[14]
  number of gentamycin-protected intracellular bacteria: No obvious protection
Escherichia coli (8739)
  antibacterial activity by bacterial ATP content (IC50), [LRR domain]: None detected
[15]
  minimal inhibitory concentration (MIC): >128 microgram/ml
[6]; FIG. 12, full length protein
  L. monocytogenes viability by ATP-coupled luminescence assay: deficient
[6]; Listeria monocytogenes (7644), gram +, +/− SD, n = 3, >100 = activity detected but <50% inhibition
  antibacterial activity by bacterial ATP content (IC50), [LRR domain]: 16.5 +/− 13.3 microgram/ml
[16]
  antibacterial activity by bacterial ATP content (IC50), [LRR domain]: None detected
Bacillus Subtilis (6633); Bacillus Subtilis (6633), gram +, +/− SD, n = 3, >100 = activity detected but <50% inhibition
  antibacterial activity by bacterial ATP content (IC50), [LRR domain]: 54.0 +/− 20.2 microgram/ml
Bacillus Subtilis (6633)
  B. subtilis viability by ATP-coupled luminescence assay: deficient
[17]
  antibacterial activity by bacterial ATP content (IC50), [LRR domain]: None detected
Escherichia coli (25922)
  antibacterial activity by bacterial ATP content (IC50), [LRR domain]: None detected
